Our source for the IC50 and fold change (IC50 against rhTSH) values is patent US20170065725A1.

Chain of porcine TSH receptor (immobilized, TSH Receptor Autoantibody 2nd Generation ELISA kit, RSR Limited) (porcine) (Q8SPP9 22-764 limits assumed): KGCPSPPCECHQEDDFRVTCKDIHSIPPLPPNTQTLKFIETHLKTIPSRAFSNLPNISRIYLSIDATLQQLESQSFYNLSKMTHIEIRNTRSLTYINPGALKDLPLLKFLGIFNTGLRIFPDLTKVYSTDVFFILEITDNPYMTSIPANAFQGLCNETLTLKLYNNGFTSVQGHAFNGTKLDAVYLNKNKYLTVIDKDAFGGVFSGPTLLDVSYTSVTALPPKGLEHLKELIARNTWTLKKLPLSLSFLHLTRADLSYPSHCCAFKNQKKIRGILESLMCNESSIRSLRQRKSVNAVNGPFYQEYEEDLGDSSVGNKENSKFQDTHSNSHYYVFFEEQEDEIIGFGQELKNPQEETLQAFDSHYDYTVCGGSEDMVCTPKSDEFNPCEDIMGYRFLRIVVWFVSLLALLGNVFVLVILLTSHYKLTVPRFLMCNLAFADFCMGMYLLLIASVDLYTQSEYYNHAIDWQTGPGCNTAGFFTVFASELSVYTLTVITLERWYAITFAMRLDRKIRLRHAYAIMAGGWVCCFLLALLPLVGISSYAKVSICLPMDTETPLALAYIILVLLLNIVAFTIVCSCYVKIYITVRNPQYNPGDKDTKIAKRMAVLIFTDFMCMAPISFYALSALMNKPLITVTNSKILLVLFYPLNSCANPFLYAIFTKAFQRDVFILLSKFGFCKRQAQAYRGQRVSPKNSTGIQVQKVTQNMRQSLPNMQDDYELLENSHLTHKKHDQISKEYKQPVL
Chain of PEG rhTSH (40 KD GAM-), monoPEGylated (ligand) (P01215 25-116): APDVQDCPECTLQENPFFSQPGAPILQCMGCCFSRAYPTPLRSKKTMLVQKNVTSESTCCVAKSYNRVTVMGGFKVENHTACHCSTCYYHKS
Chain of PEG rhTSH (40 KD GAM-), monoPEGylated (ligand) (P01222 21-138, further chain): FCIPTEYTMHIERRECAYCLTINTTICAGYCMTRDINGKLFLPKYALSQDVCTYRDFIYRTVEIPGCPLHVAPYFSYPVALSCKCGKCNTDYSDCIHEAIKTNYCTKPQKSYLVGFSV
Chain of PEG rhTSH (10 KD MultiSAM) (ligand) (P01215 25-116): as the sequence (P01215 25-116) above
Chain of PEG rhTSH (10 KD MultiSAM) (ligand) (P01222 21-138, further chain): as the sequence (P01222 21-138, further chain) above
Chain of PEG rhTSH (40 KD SAM), monoPEGylated (ligand) (P01215 25-116): as the sequence (P01215 25-116) above
Chain of PEG rhTSH (40 KD SAM), monoPEGylated (ligand) (P01222 21-138, further chain): as the sequence (P01222 21-138, further chain) above
Chain of PEG rhTSH (20 KD SAM), monoPEGylated (ligand) (P01215 25-116): as the sequence (P01215 25-116) above
Chain of PEG rhTSH (20 KD SAM), monoPEGylated (ligand) (P01222 21-138, further chain): as the sequence (P01222 21-138, further chain) above
Chain of PEG rhTSH (20 KD GAM+), monoPEGylated (ligand) (P01215 25-116): as the sequence (P01215 25-116) above
Chain of PEG rhTSH (20 KD GAM+), monoPEGylated (ligand) (P01222 21-138, further chain): as the sequence (P01222 21-138, further chain) above
Chain of mono-40 kDa NHS PEG-TSH (Lysine PEGylation) (ligand) (P01215 25-116): as the sequence (P01215 25-116) above
Chain of mono-40 kDa NHS PEG-TSH (Lysine PEGylation) (ligand) (P01222 21-138, further chain): as the sequence (P01222 21-138, further chain) above
Chain of PEG rhTSH (20 KD GAM-), monoPEGylated (ligand) (P01215 25-116): as the sequence (P01215 25-116) above
Chain of PEG rhTSH (20 KD GAM-), monoPEGylated (ligand) (P01222 21-138, further chain): as the sequence (P01222 21-138, further chain) above
Chain of PEG rhTSH (40 KD GAM+), monoPEGylated (ligand) (P01215 25-116): as the sequence (P01215 25-116) above
Chain of PEG rhTSH (40 KD GAM+), monoPEGylated (ligand) (P01222 21-138, further chain): as the sequence (P01222 21-138, further chain) above
Chain of PEG rhTSH (10 KD SAM), monoPEGylated (ligand) (P01215 25-116): as the sequence (P01215 25-116) above
Chain of PEG rhTSH (10 KD SAM), monoPEGylated (ligand) (P01222 21-138, further chain): as the sequence (P01222 21-138, further chain) above

This assay concerns the target porcine TSH receptor (immobilized, TSH Receptor Autoantibody 2nd Generation ELISA kit, RSR Limited) (porcine) (UniProt Q8SPP9). Description: competition ELISA; inhibition of biotinylated rhTSH binding to immobilized porcine TSH receptor. Background: In an ELISA, binding on a coated surface is turned into a signal by an enzyme label.
In general, IC50 refers to the concentration that gives 50% inhibition. A lower IC50 goes with inhibition by little substance. Turning to PEG rhTSH (10 KD MultiSAM) (ligand), the IC50 stood at 138 nM and the fold change (IC50 against rhTSH) is 3.8 fold.
As to “PEG rhTSH (10 KD SAM), monoPEGylated (ligand)”, the IC50 was 78.1 nM and the fold change (IC50 against rhTSH) came out at 2.1 fold.
In the same order, the values of “PEG rhTSH (20 KD GAM+), monoPEGylated (ligand)” are 81.7 nM and 2.2 fold.
In the same order, the values of “PEG rhTSH (20 KD GAM-), monoPEGylated (ligand)” are 101 nM and 2.7 fold.
On to “PEG rhTSH (20 KD SAM), monoPEGylated (ligand)”, for which the IC50 came to 92.3 nM and the fold change (IC50 against rhTSH) stood at 2.5 fold.
For “PEG rhTSH (40 KD GAM+), monoPEGylated (ligand)”, the IC50 stood at 133 nM and the fold change (IC50 against rhTSH) was 3.6 fold.
For “PEG rhTSH (40 KD GAM-), monoPEGylated (ligand)”, the IC50 is 294 nM and the fold change (IC50 against rhTSH) was determined as 8 fold.
In turn, “PEG rhTSH (40 KD SAM), monoPEGylated (ligand)” had an IC50 of 196 nM and a fold change (IC50 against rhTSH) of 5.3 fold.
Turning to “mono-40 kDa NHS PEG-TSH (Lysine PEGylation) (ligand)”, the half-maximal inhibitory concentration (IC50) is 876 nM and the fold change (IC50 against rhTSH) came to 31.2 fold.
